The values that follow are results of earlier work, collected in patent publication US20240424090A1, “COMPOSITIONS AND METHODS FOR USE IN IMMUNOTHERAPY” (INSTITUT CURIE, priority 2021, published 2024).

For data set [1], the target named is T1, FCGRIIA (Homo sapiens, UniProt P12318).
T1 sequence (P12318 34-317): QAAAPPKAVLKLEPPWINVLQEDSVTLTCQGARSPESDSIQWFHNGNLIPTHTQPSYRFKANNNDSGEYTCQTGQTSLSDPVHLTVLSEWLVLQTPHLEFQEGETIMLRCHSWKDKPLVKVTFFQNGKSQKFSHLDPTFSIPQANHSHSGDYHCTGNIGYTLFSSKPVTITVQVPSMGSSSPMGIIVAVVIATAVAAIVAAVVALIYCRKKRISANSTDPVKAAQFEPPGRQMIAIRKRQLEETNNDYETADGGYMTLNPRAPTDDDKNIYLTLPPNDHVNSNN

For data set [2], the target named is FCGRIIIA (Homo sapiens, UniProt P08637).
Sequence of FCGRIIIA (P08637 17-254): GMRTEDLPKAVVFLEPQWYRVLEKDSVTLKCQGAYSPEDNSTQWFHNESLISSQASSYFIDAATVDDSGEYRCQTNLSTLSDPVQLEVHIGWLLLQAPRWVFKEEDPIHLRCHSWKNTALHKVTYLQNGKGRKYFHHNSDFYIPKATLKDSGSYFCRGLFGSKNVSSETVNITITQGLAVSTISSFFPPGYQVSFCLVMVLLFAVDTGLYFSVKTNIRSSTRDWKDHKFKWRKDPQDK

Regarding Tremelimumab: IgG2 anti-CTLA-4 antibody, the “binding to FCGRIIA” value in data set [1] is listed as “binds well”. The “binding to FCGRIIIA” value in data set [2] is “not”.
